In US20210363257A1 (Pieris, published 2021):

Key:
[1] = target: T1, cyPD-L1-His (cynomolgus PD-L1 with a C-terminal polyhistidine tag) (cynomolgus); experiment: ELISA, cyPD-L1-His coated, detection anti-human IgG Fc-HRP
T1 construct: Bought
Protocol: (§1) Recombinant huPD-L1-His or cyPD-L1-His (human or cynomolgus PD-L1 with a C-terminal polyhistidine tag, R&D Systems or Sino Biologics) at the concentration of 1 μg/mL in PBS was coated overnight on microtiter plates at 4° C. After washing with PBS-0.05% T (PBS supplemented with 0.05% (v/v) Tween 20), the plates were blocked with 2% BSA (w/v) in PBS-0.1% T (PBS supplemented with 0.1% (v/v) Tween 20) for 1 h at room temperature. […] Bound molecules under study were detected by incubation with 1:5000 diluted anti-human IgG Fc-HRP (Jackson Laboratory) in PBS-0.1% T-2% BSA. After an additional wash step, fluorogenic HRP substrate (QuantaBlu, Thermo) was added to each well and the fluorescence intensity was detected using a fluorescence microplate reader.

[2] = target: T2, huPD-L1-His (human PD-L1 with a C-terminal polyhistidine tag) (human, UniProt Q9NZQ7 19-239); experiment: ELISA, huPD-L1-His coated, detection anti-human IgG Fc-HRP
T2 construct: Bought; also called biotinylated huPD-L1-His
Protocol: as §1

[3] = target: T3, human PD-L1 expressed on cells (human, UniProt Q9NZQ7 19-290); experiment: flow cytometry, RKO tumor cells (PD-L1-positive)
T3 construct: whole, on cells; also called Flp-In-CHO::huPDL-1; RKO cells
Protocol: (§2) 5×10⁴ cells per well were incubated for 1 h in ice-cold PBS containing 5% fetal calf serum (PBS-FCS). A dilution series of the fusion proteins and control antibodies were added to the cells and incubated for 1 h on ice. Cells were washed twice with PBS and then incubated with a goat anti-hIgG Alexa647-labeled antibody for 30 min on ice. Cells were subsequently washed and analyzed using iQue Flow cytometer (Intellicyte Screener). Mean geometric fluorescent signals were plotted and fitted with Graphpad software using nonlinear regression (shared bottom, SLOPE=1).
For flow cytometric analysis, RKO cells were incubated with fusion proteins and detected using a fluorescently labeled anti-human IgG antibody as described in Example 6.

[4] = target: T3, human PD-L1 expressed on cells; experiment: flow cytometry, Flp-In-CHO::huPDL-1 cells
Protocol: The geometric means of the fluorescence intensity were used to calculate EC₅₀ values using nonlinear regression (shared bottom, SLOPE=1).
as §2

[5] = target: T4, biotinylated huCD137-Fc (human CD137 Fc fusion) (human, UniProt Q07011 24-186, biotinylated); experiment: competitive ELISA, antibody SEQ ID NOs: 28 and 29 coated (competitor), 1 nM huCD137-Fc-bio tracer, binder titrated
T4 construct: Bought; also called huCD137-Fc-bio
Protocol: The plates were washed five times after each incubation step with 100 μL PBS-0.05% T (PBS supplemented with 0.05% (v/v) Tween 20). The plates were blocked with 2% BSA (w/v) in PBS-0.1% T (PBS supplemented with 0.1% (v/v) Tween 20) for 1 h at room temperature and subsequently washed again. […] The mixtures of testing molecules and the tracer were added to the plates and incubated for 20 min at room temperature following by five washing steps with 100 μL PBS-0.05% T. Subsequently, a 1:5000 dilution of ExtrAvidin-HRP (Sigma-Aldrich) in PBS-0.1% T-2% BSA was added to the wells and incubated for 1 h. After an additional wash step, fluorogenic HRP substrate (QuantaBlu, Thermo) was added to each well, and the fluorescence intensity was detected using a fluorescence microplate reader.
Competition data for an exemplary experiment are shown in FIG. 14, where the x-axis represents testing molecule concentration and the y-axis represents the measured trace molecule concentration. The data were fit to a 1:1 sigmoidal curve, where the IC₅₀ value and the maximum signal were free parameters, and the slope was fixed to unity.

[6] = target: T5, huCD137-His (human CD137 with a C-terminal polyhistidine tag) (human, UniProt Q07011 24-186); experiment: ELISA, huCD137-His coated, detection anti-NGAL-HRP
T5 construct: Bought; also called huCD137-His-Bio
Protocol: as §1
(§3) The same ELISA setup was also employed to determine the binding potency of fusion proteins to CD137, where huCD137-His (human CD137 with C-terminal polyhistidine tag, R&D Systems) or cyCD137-Fc (cynomolgus CD137 C-terminally fused to Fc) was instead coated on a microtiter plate. The testing agents were similarly titrated and bound agents were detected via anti-NGAL-HRP.

[7] = target: T6, huPD-L1-Fc (recombinant human PD-L1 Fc fusion) (human, UniProt Q9NZQ7 19-239); experiment: competitive ELISA, huPD-1-His coated, 15 nM huPD-L1-Fc tracer, binder titrated
T6 construct: Bought; also called tracer huPD-L1-Fc
Protocol: Recombinant huPD-1-His (Acrobiosystems) in PBS (1 μg/mL) was coated overnight on microtiter plates at 4° C. The plates were washed five times after each incubation step with 100 μL PBS-0.05% T (PBS supplemented with 0.05% (v/v) Tween 20). The plates were blocked with 2% BSA (w/v) in PBS-0.1% T (PBS supplemented with 0.1% (v/v) Tween 20) for 1 h at room temperature and subsequently washed again. […] The mixtures of fusion proteins and the tracer were added to the plates and incubated for 20 min at room temperature following by five washing steps with 100 μL PBS-0.05% T. Subsequently, a 1:5000 dilution of goat-anti human IgG-Fc HRP (Jackson) was added to the wells and incubated for 1 h. After an additional wash step, fluorogenic HRP substrate (QuantaBlu, Thermo) was added to each well, and the fluorescence intensity was detected using a fluorescence microplate reader.

[8] = target: cyCD137-Fc (cynomolgus CD137 C-terminally fused to Fc) (cynomolgus); experiment: ELISA, cyCD137-Fc coated, detection anti-NGAL-HRP
Protocol: as §1, §3

B1: fusion protein SEQ ID NOs: 86 and 91 (bispecific antibody, human IgG4 S228P, kappa, F234A L235A)
heavy: not shown
light: EIVLTQSPDTLSVTPKEKVTLTCRASQSIGTNIHWFQQKPGQSPKLLIKYASESISGVPSRFSGSGSGTDFTLTINSVEAEDAATYYCQQSNSWPYTFGQGTKLEIKRTVAAPSVFIFPPSDEQLKSGTASVVCLLNNFYPREAKVQWKVDNALQSGNSQESVTEQDSKDSTYSLSSTLTLSKADYEKHKVYACEVTHQGLSSPVTKSFNRGECGGGGSGGGGSGGGGSQDSTSDLIPAPPLSKVPLQQNFQDNQFHGKWYVVGQAGNIRLREDKDPIKMMATIYELKEDKSYDVTMVKFDDKKCMYDIWTFVPGSQPGEFTLGKIKSFPGHTSSLVRVVSTNYNQHAMVFFKFVFQNREEFYITLYGRTKELTSELKENFIRFSKSLGLPENHIVFPVPIDQCIDG
notes: Antibody-lipocalin mutein fusion, IgG4 S228P backbone; Bivalent to CD137
Question: Which EC50 [1] does the source give for B1 here?
Answer: The EC50 was 0.18 nM.

Question: What about the EC50 [2] of the same binder?
Answer: The EC50 was 0.23 nM.

Question: And the EC50 [3]?
Answer: The EC50 was 0.45 nM.

Question: And the EC50 [4]?
Answer: The EC50 was 1.43 nM.

Question: And the IC50 [5]?
Answer: Its IC50 is 0.99 nM.

Question: What about the EC50 [6] of the same binder?
Answer: The EC50 was 0.57 nM.

Question: What about the IC50 [7] of the same binder?
Answer: Its IC50 is 3 nM.

Question: And the EC50 [8]?
Answer: Its EC50 is 13 nM.

B2: fusion protein SEQ ID NOs: 90 and 87 (bispecific antibody, human IgG4 S228P, kappa, F234A L235A)
heavy: not shown
light: EIVLTQSPDTLSVTPKEKVTLTCRASQSIGTNIHWFQQKPGQSPKLLIKYASESISGVPSRFSGSGSGTDFTLTINSVEAEDAATYYCQQSNSWPYTFGQGTKLEIKRTVAAPSVFIFPPSDEQLKSGTASVVCLLNNFYPREAKVQWKVDNALQSGNSQESVTEQDSKDSTYSLSSTLTLSKADYEKHKVYACEVTHQGLSSPVTKSFNRGEC
notes: Bivalent to CD137
Question: Which EC50 [1] does the source give for B2 here?
Answer: The EC50 was 0.13 nM.

Question: And the EC50 [2]?
Answer: The EC50 was 0.15 nM.

Question: What about the EC50 [3] of the same binder?
Answer: Its EC50 is 0.51 nM.

Question: And the EC50 [4]?
Answer: The EC50 was 3.64 nM.

Question: What about the IC50 [5] of the same binder?
Answer: The IC50 was 1.1 nM.

Question: What about the EC50 [6] of the same binder?
Answer: Its EC50 is 0.28 nM.

Question: What about the IC50 [7] of the same binder?
Answer: Its IC50 is 2.3 nM.

Question: And the EC50 [8]?
Answer: Its EC50 is 5.9 nM.
